Measurements as given in US20240390496A1 (published 2024).

Biological target: T1, MAGE-A3 peptide on HLA-A*02:01 (human)
T1 peptide: KVAELVHFL
Assay: killing

B1: MAGE-A3 (112-120) TCR (MAGE-A3-112-120-Va / MAGE-A3-112-120-Vb) (TCR, V domains shown)
Valpha: GDSVTQTEGLVTLTEGLPVMLNCTYQTIYSNPFLFWYVQHLNESPRLLLKSFTDNKRTEHQGFHATLHKSSSSFHLQKSSAQLSDSALYYCAFDTNTYKVIFGKGTHLHVLP
Vbeta: DMKVTQMPRYLIKRMGENVLLECGQDMSHETMYWYRQDPGLGLQLIYISYDVDSNSEGDIPKGYRVSRKKREHFSLILDSAKTNQTSVYFCASSSTNTEVFFGKGTRLTVL
B1: recognises.
